Patent US11046988B2, “Process for the modification of a glycoprotein using a β-(1,4)-N-acetylgalactosaminyl transferase or a mutant thereof” (Synaffix B.V., priority 2014, dated 2021)

Key:
β-(1,4)-GalNAcT = β-(1,4)-GalNAcT (Caenorhabditis elegans, UniProt Q9GUM2); conditions: sugar nucleotide as donor substrate; cited from earlier work
[1] = cited from earlier work
[2] = tested on: trimmed trastuzumab (core GlcNAc(Fuc) / core GlcNAc, glycan of formula (1)); experiment: Glycosyltransfer of sugar derivative to trimmed (Endo S deglycosylated) trastuzumab, MS analysis; type: biochemical; conditions: overnight; for cumulative conversions of the major and minor product, F2-GalNBzN3 transfer: UDP-F2-GalNBzN3 (24) 1 mM, enzyme 0.5 mg/mL; for cumulative conversions of the major and minor product, F2-GalNAz transfer: UDP-F2-GalNAz (18) 1 mM, enzyme 0.25 mg/mL
Description: Trimming of IgG glycans was performed using Endo S from Streptococcus pyogenes (commercially available from Genovis, Lund, Sweden). The IgG (10 mg/mL) was incubated with Endo S (40 U/mL) in 25 mM Tris pH 8.0 for approximately 16 hours at 37° C. The deglycosylated IgG was concentrated and washed with 10 mM MnCl2 and 25 mM Tris-HCl pH 8.0 using an Amicon Ultra-0.5, Ultracel-10 Membrane (Millipore).
Trastuzumab was subjected to the trimming protocol above. Analysis of the trimmed antibody was performed on a JEOL AccuToF equipped with an Agilent 1100 HPLC. Samples (2 μL) were reduced with DTT (2 μL) during 10 min and subsequently diluted with H2O (40 μL) prior to injection. […] The two peaks of heavy chain belonged to one major product (49496 Da, 90% of total heavy chain), resulting from core GlcNAc(Fuc) substituted trastuzumab, and a minor product (49351 Da, ±10% of total heavy chain), resulting from core GlcNac substituted trastuzumab. This is an example of a glycoprotein comprising a glycan according to formula (1).
A solution of 50 μg (modified) IgG, 1 M Tris-HCl pH 8.0, 1 mM EDTA and 30 mM DTT with a total volume of approximately 70 μL was incubated for 20 minutes at 37° C. to reduce the disulfide bridges allowing to analyze both light and heavy chain. If present, azide-functionalities are reduced to amines under these conditions. Reduced samples were washed trice with milliQ using an Amicon Ultra-0.5, Ultracel-10 Membrane (Millipore) and concentrated to 10 μM (modified) IgG. The reduced IgG was analyzed by electrospray ionization time-of-flight (ESI-TOF) on a JEOL AccuTOF. Deconvoluted spectra were obtained using Magtran software.
Enzymatic introduction of galactose derivative (e.g. azido-containing sugar) onto IgG was effected with a GalNAc-transferase or a mutant thereof. The deglycosylated IgG (prepared as described above, 10 mg/mL) was incubated with a modified UDP-galactose derivative (e.g. an azido-modified sugar-UDP derivative) (0.4 mM) and GalNAcT (1 mg/mL) in 10 mM MnCl2 and 25 mM Tris-HCl pH 8.0 for 16 hours at 30° C. The functionalized IgG (e.g. azido-functionalized IgG) was incubated with protein A agarose (40 μL per mg IgG) for 2 hours at 4° C. The protein A agarose was washed three times with PBS and the IgG was eluted with 100 mM glycine-HCl pH 2.7. The eluted IgG was neutralized with 1 M Tris-HCl pH 8.0 and concentrated and washed with PBS using an Amicon Ultra-0.5, Ultracel-10 Membrane (Millipore) to a concentration of 15-20 mg/mL.
Enzymatic introduction of galactose derivative (e.g. thio-containing sugar 21) onto IgG was effected with a GalNAc-transferase or a mutant thereof. The deglycosylated IgG (prepared as described above, 10 mg/mL) was incubated with a modified UDP-galactose derivative (e.g. an thio-modified sugar-UDP derivative) (2 mM) and GalNAcT (0.2 mg/mL) in 10 mM MnCl2 and 50 mM Tris-HCl pH 6.0 for 16 hours at 30° C. The functionalized IgG (e.g. thio-functionalized trastuzumab) was incubated with protein A agarose (40 μL per mg IgG) for 1 hours at rt. The protein A agarose was washed three times with TBS (pH 6.0) and the IgG was eluted with 100 mM glycine-HCl pH 2.5. The eluted IgG was neutralized with 1 M Tris-HCl pH 7.0 and concentrated and washed with 50 mM Tris-HCl pH 6.0 using an Amicon Ultra-0.5, Ultracel-10 Membrane (Millipore) to a concentration of 15-20 mg/mL.

β-(1,4)-GalNAcT, sequence (Q9GUM2 whole entry): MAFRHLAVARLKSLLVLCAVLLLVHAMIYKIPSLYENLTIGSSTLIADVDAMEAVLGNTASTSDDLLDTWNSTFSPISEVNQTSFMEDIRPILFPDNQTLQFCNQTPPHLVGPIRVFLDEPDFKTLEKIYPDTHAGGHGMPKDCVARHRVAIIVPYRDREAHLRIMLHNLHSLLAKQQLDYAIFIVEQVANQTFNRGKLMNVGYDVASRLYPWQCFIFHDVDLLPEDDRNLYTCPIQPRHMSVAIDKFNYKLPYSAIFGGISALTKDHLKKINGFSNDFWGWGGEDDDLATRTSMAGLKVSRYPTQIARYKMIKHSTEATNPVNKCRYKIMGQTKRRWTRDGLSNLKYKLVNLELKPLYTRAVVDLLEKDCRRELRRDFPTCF

CC(=O)N[C@H]1[C@@H](OP(=O)(O)OP(=O)(O)OC[C@H]2O[C@@H](n3ccc(=O)[nH]c3=O)[C@H](O)[C@@H]2O)O[C@H](CO)[C@@H](O)[C@@H]1O [UDP-GlcNAc]
transferase activity remaining (compared with UDP-GalNAc) (β-(1,4)-GalNAcT): 0.7%

B1: β4GalT(Y289L,M344H): double mutant β-1,4-galactosyltransferase 1 described by Ramakrishnan et al. (protein, UniProt P08037 1-402, looked up, variant Y289L M344H)
chain: MKFREPLLGGSAAMPGASLQRACRLLVAVCALHLGVTLVYYLAGRDLRRLPQLVGVHPPLQGSSHGAAAIGQPSGELRLRGVAPPPPLQNSSKPRSRAPSNLDAYSHPGPGPGPGSNLTSAPVPSTTTRSLTACPEESPLLVGPMLIEFNIPVDLKLVEQQNPKVKLGGRYTPMDCISPHKVAIIIPFRNRQEHLKYWLYYLHPILQRQQLDYGIYVINQAGESMFNRAKLLNVGFKEALKDYDYNCFVFSDVDLIPMNDHNTYRCFSQPRHISVAMDKFGFSLPYVQLFGGVSALSKQQFLSINGFPNNYWGWGGEDDDIYNRLAFRGMSVSRPNAVIGKCRHIRHSRDKKNEPNPQRFDRIAHTKETMLSDGLNSLTYMVLEVQRYPLYTKITVDIGTPS
activity in the presence of Mg2+ ([1]; Mg2+): 25-30% | loss of Mn2+-dependent activity ([1]; Mn2+): 98%

B2: TnGalNAcT(W336H): T. ni GalNAcT mutant, tryptophan 336 to histidine, SEQ ID NO: 51 (protein)
chain: MGGRATRALRLLLLLVLALAAVEYLFGSILDASPLRTYLYTPLYNATQPTLRNVERLAANWPKKIPSNYIEDSEEYSIKNISLSNHTTRASVVHPPSSITETASKLDKNMTIQDGAFAMISPTPLLITKLMDSIKSYVTTEDGVKKAEAVVTLPLCDSMPPDLGPITLNKTELELEWVEKKFPEVEWGGRYSPPNCTARHRVAIIVPYRDRQQHLAIFLNHMHPFLMKQQIEYGIFIVEQEGNKDFNRAKLMNVGFVESQKLVAEGWQCFVFHDIDLLPLDTRNLYSCPRQPRHMSASIDKLHFKLPYEDIFGGVSAMTLEQFTRVNGFSNKYWGHGGEDDDMSYRLKKINYHIARYKMSIARYAMLDHKKSTPNPKRYQLLSQTSKTFQKDGLSTLEYELVQVVQYHLYTHILVNIDERS
cumulative conversions of the major and minor product, F2-GalNBzN3 transfer [2]: 62%

B3: TnGalNAcT(I299M): T. ni GalNAcT mutant, isoleucine 299 to methionine, SEQ ID NO: 45 (protein)
chain: MGGRATRALRLLLLLVLALAAVEYLFGSILDASPLRTYLYTPLYNATQPTLRNVERLAANWPKKIPSNYIEDSEEYSIKNISLSNHTTRASVVHPPSSITETASKLDKNMTIQDGAFAMISPTPLLITKLMDSIKSYVTTEDGVKKAEAVVTLPLCDSMPPDLGPITLNKTELELEWVEKKFPEVEWGGRYSPPNCTARHRVAIIVPYRDRQQHLAIFLNHMHPFLMKQQIEYGIFIVEQEGNKDFNRAKLMNVGFVESQKLVAEGWQCFVFHDIDLLPLDTRNLYSCPRQPRHMSASMDKLHFKLPYEDIFGGVSAMTLEQFTRVNGFSNKYWGWGGEDDDMSYRLKKINYHIARYKMSIARYAMLDHKKSTPNPKRYQLLSQTSKTFQKDGLSTLEYELVQVVQYHLYTHILVNIDERS
cumulative conversions of the major and minor product, F2-GalNBzN3 transfer [2]: 26%

B4: TnGalNAcT(E339A): T. ni GalNAcT mutant, glutamic acid 339 to alanine, SEQ ID NO: 53 (protein)
chain: MGSSHHHHHHSSGLVPRGSHMSPLRTYLYTPLYNATQPTLRNVERLAANWPKKIPSNYIEDSEEYSIKNISLSNHTTRASVVHPPSSITETASKLDKNMTIQDGAFAMISPTPLLITKLMDSIKSYVTTEDGVKKAEAVVTLPLCDSMPPDLGPITLNKTELELEWVEKKFPEVEWGGRYSPPNCTARHRVAIIVPYRDRQQHLAIFLNHMHPFLMKQQIEYGIFIVEQEGNKDFNRAKLMNVGFVESQKLVAEGWQCFVFHDIDLLPLDTRNLYSCPRQPRHMSASIDKLHFKLPYEDIFGGVSAMTLEQFTRVNGFSNKYWGWGGADDDMSYRLKKINYHIARYKMSIARYAMLDHKKSTPNPKRYQLLSQTSKTFQKDGLSTLEYELVQVVQYHLYTHILVNIDERS
modifications: His6-TnGalNAcT(33-421; E339A)
cumulative conversions of the major and minor product, F2-GalNAz transfer [2]: 5%

B5: TnGalNAcT(L302A): T. ni GalNAcT mutant, leucine 302 to alanine, SEQ ID NO: 43 (protein)
chain: MGSSHHHHHHSSGLVPRGSHMSPLRTYLYTPLYNATQPTLRNVERLAANWPKKIPSNYIEDSEEYSIKNISLSNHTTRASVVHPPSSITETASKLDKNMTIQDGAFAMISPTPLLITKLMDSIKSYVTTEDGVKKAEAVVTLPLCDSMPPDLGPITLNKTELELEWVEKKFPEVEWGGRYSPPNCTARHRVAIIVPYRDRQQHLAIFLNHMHPFLMKQQIEYGIFIVEQEGNKDFNRAKLMNVGFVESQKLVAEGWQCFVFHDIDLLPLDTRNLYSCPRQPRHMSASIDKAHFKLPYEDIFGGVSAMTLEQFTRVNGFSNKYWGWGGEDDDMSYRLKKINYHIARYKMSIARYAMLDHKKSTPNPKRYQLLSQTSKTFQKDGLSTLEYELVQVVQYHLYTHILVNIDERS
modifications: His6-TnGalNAcT(33-421; L302A)
cumulative conversions of the major and minor product, F2-GalNAz transfer [2]: 95% | cumulative conversions of the major and minor product, F2-GalNBzN3 transfer [2]: 37%

B6: TnGalNAcT(L302G): T. ni GalNAcT mutant, leucine 302 to glycine, SEQ ID NO: 44 (protein)
chain: MGSSHHHHHHSSGLVPRGSHMSPLRTYLYTPLYNATQPTLRNVERLAANWPKKIPSNYIEDSEEYSIKNISLSNHTTRASVVHPPSSITETASKLDKNMTIQDGAFAMISPTPLLITKLMDSIKSYVTTEDGVKKAEAVVTLPLCDSMPPDLGPITLNKTELELEWVEKKFPEVEWGGRYSPPNCTARHRVAIIVPYRDRQQHLAIFLNHMHPFLMKQQIEYGIFIVEQEGNKDFNRAKLMNVGFVESQKLVAEGWQCFVFHDIDLLPLDTRNLYSCPRQPRHMSASIDKGHFKLPYEDIFGGVSAMTLEQFTRVNGFSNKYWGWGGEDDDMSYRLKKINYHIARYKMSIARYAMLDHKKSTPNPKRYQLLSQTSKTFQKDGLSTLEYELVQVVQYHLYTHILVNIDERS
modifications: His6-TnGalNAcT(33-421; L302G)
cumulative conversions of the major and minor product, F2-GalNBzN3 transfer [2]: 14%
